Reference: patent US20240317826A1, “COMPOSITIONS AND METHODS FOR TREATING AND/OR I[…] AGENT FOR TREATING HIV-1 INFECTIONS” (priority 2021, published 2024)
Where no end group is shown, it is not given here.

Columns and labels:
[1] = molecular target: T1, IN-INI1 interaction (Human immunodeficiency virus type 1 group M subtype B, UniProt P04585); test: Alpha interaction assay: effect of stapled peptides on IN-INI1 interaction; format: binding, HIV-1; settings: in vitro
T1 construct: made in house; host or cells: bacteria (E. coli inferred from the pGEX vector)
Description: (§1) FIG. 8A-FIG. 8D show quantitative alpha interaction assay to determine the effect of stapled peptides on the interaction of IN and IN-CTD with INI1 and INI1183-304 or TAR RNA. […] Fixed concentrations of GST-IN, 6His-INI1, and TAR RNA were incubated with increasing concentration of stapled peptides and the interaction was detected as Alpha Score. The IC50 values were determined by fitting the data to a four-parameter dose-response curve using Graph Pad prism. All the graphs represent the average of three independent experiments (Mean+/−SEM).
(§2) AlphaScreen proximity assay to detect the protein-protein and protein-RNA interactions. AlphaScreen assay was carried out using PerkinElmer Alpha-Lisa-6His Acceptor beads (Catalogue #AL128C), Alpha-Screen-GST donor beads (Catalogue #6765300), GST-tagged and His-tagged proteins for protein-protein interactions; and Alpha-Screen Streptavidin donor beads (Catalogue #6760002 S), Alpha-Lisa-GST acceptor beads (Catalogue #AL110C), Biotin-labeled RNA and GST-tagged proteins for protein-RNA interactions. The reaction was carried out according to the manufacturer's protocol in a reaction buffer contacting (25 mM HEPES pH 7.4, 100 mM NaCl (or 500 mM NaCl), 1 mM DTT, 1 mM MgCl2 and BSA 1 mg ml/ml). The mixture of proteins or protein and RNA were incubated for 1 hr at room temperate with shaking in a multi micro-plate shaker and then 20 ag ml/ml accepter beads were added and incubated for additional 1 h with shaking. Finally, 20 ag ml^−1 of donor beads were added and further incubated for 1 hr. The Alpha score readings were measured using Alpha-compatible Envision 2105 multi-plate reader (Perkin-Elmer). All the experiments related to this method were carried out 3 to 5 times and data were analyzed by using Graph Pad Prism 9 version 9.0.0 (GraphPad Software, CA). The RNA sequences used in this assay are listed in the Table 6d and were obtained from Integrated DNA technology.
(§3) These peptides were tested for their ability to disrupt the interaction between IN-INI1 and IN-TAR RNA in vitro.

[2] = molecular target: T2, IN-TAR RNA interaction (Human immunodeficiency virus type 1 group M subtype B, UniProt P04585); test: Alpha interaction assay: effect of stapled peptides on IN-TAR RNA interaction; format: binding, HIV-1; settings: in vitro
T2 construct: made in house; host or cells: bacteria (E. coli inferred from the pGEX vector)
Description: as §1, §2, §3

Question: What does the source list for “lys-Leu-Met-Thr-Pro-Glu-Met-Phe-Ser-Glu-Ile-Leu-Cys-Asp-Leu-Asn (KLMTPEMFSEILCDLN; not fully specified; printed as lys-Leu-Met-Thr-Pro-Glu-Met-Phe-Ser-Glu-Ile-Leu-Cys-Asp-Leu-Asn) [SP80, Linear peptide (without stapling) derived from Alpha helix 1 of INI1 Rpt-1 domain]”?
Answer: inhibition of IN-INI1 interactions [1]: did not inhibit; inhibition of IN-TAR RNA interactions [2]: did not inhibit

Question: “lys-Leu-Met-Thr-Pro-Glu-R8-Met-Phe-Glu-Ile-Leu-S5-Cys-Asp-Leu-Asn [SP39]” was tested. Which “IC50, inhibition of IN-INI1 interactions” value [1] did it give?
Answer: The value was “low nanomolar”.

Question: What about the “IC50, inhibition of IN-TAR RNA interactions” value [2] of the same substance?
Answer: The value was “low nanomolar”.
